{"source": "patent US10792311B2", "about": "“Stimulation of ovarian follicle development and oocyte maturation” (The Board of Trustees of the Leland Stanford Junior …, priority 2011, dated 2020)", "key": {"[1]": {"system": "preantral follicles", "assay": "Preantral follicle culture", "type": "cell-based, mice", "conditions": "preantral follicles of day 13 mice, four days", "description": "CNP treatment promoted the growth of preantral follicles and cultured ovarian explants: Preantral follicles (125-135 um in diameter) were isolated from ovaries of mice at day 13 of age and treated with different hormones for four days with daily monitoring of follicle diameters. […] In contrast, treatment with ANP was ineffective.\nDissection follicles of different sizes and culturing of preantral follicles: For RT-PCR analyses, early secondary follicles of 90-140 um in diameters were isolated from mice at day 13 of age whereas antral follicles (300-400 um in diameter) were isolated from prepubertal mice at day 23 of age. Preovulatory follicles (500-600 um in diameter) were isolated from prepubertal mice treated with eCG (5 IU). For follicle cultures, preantral follicles (125-145 um in diameter) were isolated from mice at day 13 of age and cultured individually in 96 well plates containing alpha-MEM (100 ul/well) with penicillin and streptomycin together with insulin, transferrin and selenium. […] The media were changed every two days and follicle growth was monitored daily by measuring follicle diameters."}, "[2]": {"system": "ovaries from day 10 mice", "assay": "Ovarian explant cultures treated with CNP and/or FSH", "type": "cell-based", "description": "Ovarian explant cultures: Ovaries from day 10 mice were placed on culture plate inserts (Millipore, Bedford, Mass.) and cultured in 400 μl of DMEM/F12 containing 0.1% BSA (Sigma), 0.1% Albumax II, insulin-transferrin-selenium, 0.05 mg/ml L-ascorbic acid and penicillin-streptomycin under the membrane insert to cover ovaries with a thin layer of medium. […] Some explants were also treated with a pan-specific protein kinase G inhibitor, Rp-8-Br-PET-cGMPS (BioLog, Bremen, Germany). At the end of culture, ovaries were fixed in Bouin's solution, paraffin embedded, and cut into continuous sections before staining with hematoxylin and eosin."}, "[3]": {"system": "intestinal stem cell", "conditions": "100 μg/adult mice; cited from earlier work"}, "[4]": {"system": "canonical Wnt signaling pathway", "assay": "TCF-luciferase assay in cultured ovarian somatic cells", "type": "cell-based", "conditions": "somatic cells of day 10 mice; for TCF-luciferase activity: agent alone", "description": "TCF-luciferase assay: Ovarian somatic cells from day 10 mice were cultured overnight at 37 C in McCoy's 5a medium containing 10% fetal bovine serum (FBS; Gibco) before evaluation of Wnt signaling based on the TCF-luciferase assay. Cells were transfected with 1 μg of pTOP FLASH or pFOP FLASH plasmid together with 0.1 μg of pRL-TK plasmid using lipofectamine 2000 (Invitrogen, Carlsbad, Calif.) for 6 h. […] Luciferase activity expressed as relative light unit was determined using a Dual Luciferase Reporter Assay Kit (Promega) with a luminometer (Bio-Rad).\nLuciferase activity was measured as an index of Wnt signaling. […] To estimate the number of viable cells, cells were also cultured with increasing doses of R-spondin2 with or without Wnt3a before measurement of mitochondrial reductase (MTS) activity."}, "[5]": {"system": "somatic cells obtained from day 10 ovaries", "assay": "Cell proliferation (MTS) assay of ovarian somatic cells", "type": "cell-based, mice", "conditions": "for MTS activity (viable cell number): agent alone, 2 days", "description": "Cell proliferation assay: Ovaries obtained from day 10 mice were digested with collagenase I, DNase, and trypsin. After centrifuging at 270×g for 10 min., cell pellet was washed and plated in a 96-well plate (BD Falcon, Franklin Lakes, N.J.) in McCoy's 5a medium (Gibco BRL, Grand Island, N.Y.) containing 4 mg/ml BSA (Sigma Aldrich Chemicals, St. Louis, Mo.), penicillin-streptomycin (Gibco) and sodium pyruvate (Gibco) for 3 h at 37 C. After washing twice with PBS to remove floating oocytes, cells were cultured in serum-free McCoy's 5a medium containing different factors for 48 h. MTS (3-(4,5-dimethylthiazol-2-yl)-5-(3-carboxymethoxyphenyl)-2-(4-sulfophenyl)-2H-tetrazolium) assay was performed using Cell Titer 96 Aqueous One Solution Cell Proliferation Assay (Promega, Madison, Wis.) by adding the substrate for 2 h before measuring absorbance at 490 nm."}, "[6]": {"system": "ovaries from day 10 mice", "assay": "Ovarian explant cultures treated with R-spondin2 and/or FSH", "type": "cell-based", "description": "Ovarian explant cultures: Ovaries from day 10 mice were placed on culture plate insert (Millipore, Bedford, Mass.) and cultured in 400 μl of DMEM/F12 (Gibco) containing 0.1% BSA (Sigma), 0.1% Albumax II (Gibco), insulin-transferrin-selenium (Gibco), 0.05 mg/ml L-ascorbic acid (Sigma) and penicillin-streptomycin (Gibco) under the membrane insert to cover ovaries with a thin layer of medium. […] Explants treated with non-immune IgG or boiled (100 C, 15 min) R-spondin2 antibodies served as negative controls. At the end of culture, ovaries were fixed in Bouin's solution, paraffin embedded, and cut into continuous sections before staining with hematoxylin and eosin. Only follicles with clearly stained oocyte nucleus were counted to prevent recounting of the same follicle."}, "[7]": {"conditions": "treatment with R-spondin2 and/or FSH"}}, "data": [{"molecule": "Nc1nc2c(nc(Br)n2[C@@H]2O[C@@H]3COP(=O)(O)O[C@H]3[C@H]2O)c(=O)[nH]1", "note": "[8-bromo-cGMP, reference compound]", "values": [{"measurement": "Follicle size (diameter)", "setting": "[1]", "value": "induced"}]}, {"molecule": "CC[C@H](C)[C@@H]1NC(=O)[C@H](CCCNC(=N)N)NC(=O)[C@H](CC(=O)O)NC(=O)[C@H](CCSC)NC(=O)[C@H](CCCNC(=N)N)NC(=O)CNC(=O)CNC(=O)[C@H](Cc2ccccc2)NC(=O)[C@@H](NC(=O)[C@H](CO)NC(=O)[C@H](CO)NC(=O)[C@H](CCCNC(=N)N)NC(=O)[C@H](CCCNC(=N)N)NC(=O)[C@H](CC(C)C)NC(=O)[C@@H](N)CO)CSSC[C@@H](C(=O)N[C@@H](CC(N)=O)C(=O)N[C@@H](CO)C(=O)N[C@@H](Cc2ccccc2)C(=O)N[C@@H](CCCNC(=N)N)C(=O)N[C@@H](Cc2ccc(O)cc2)C(=O)O)NC(=O)CNC(=O)[C@H](CC(C)C)NC(=O)CNC(=O)[C@H](CO)NC(=O)[C@H](CCC(N)=O)NC(=O)[C@H](C)NC(=O)CNC1=O", "note": "[ANP, reference compound]", "values": [{"measurement": "Ovarian weights of explants", "setting": "[2]; day 10 ovaries, 4 days culture", "value": "not"}, {"measurement": "Follicle size (diameter)", "setting": "[1]", "value": "ineffective"}]}, {"molecule": "O=c1c2nc(Br)n([C@@H]3O[C@@H]4CO[P@@](O)(=S)O[C@H]4[C@H]3O)c2nc2[nH]c(-c3ccccc3)cn12", "note": "[Rp-8-Br-PET-cGMPs, Rp-8-Br-PET-cGMPS, reference compound]", "values": [{"measurement": "Effect on stimulatory effects of CNP on ovarian weight", "setting": "[2]; explant culture", "value": "blocked the stimulatory effects of CNP"}, {"measurement": "Effect on effects of a high dose of FSH on ovarian weight", "setting": "[2]; explant culture, FSH 100 ng/ml", "value": "partially suppressed the effects of a high dose of FSH"}]}, {"molecule": "R-spondin1: secreted glycoprotein of the R-spondin family that synergizes with Wnts to activate β-catenin-dependent signaling (protein, UniProt Q2MKA7 21-263, looked up) R-spondin-1: SRGIKGKRQRRISAEGSQACAKGCELCSEVNGCLKCSPKLFILLERNDIRQVGVCLPSCPPGYFDARNPDMNKCIKCKIEHCEACFSHNFCTKCKEGLYLHKGRCYPACPEGSSAANGTMECSSPAQCEMSEWSPWGPCSKKQQLCGFRRGSEERTRRVLHAPVGDHAACSDTKETRRCTVRRVPCPEGQKRRKGGQGRRENANRNLARKESKEAGAGSRRRKGQQQQQQQGTVGPLTSAGPA", "values": [{"measurement": "Intestinal stem cell proliferation and intestinal growth", "setting": "[3]", "value": "stimulate intestinal stem cell proliferation and intestinal growth"}]}, {"molecule": "R-spondin2: secreted protein that regulates beta-catenin; oocyte-derived paracrine factor; recombinant human R-spondin2 (protein, UniProt Q6UXX9 22-243, looked up) R-spondin-2: QGNRWRRSKRASYVSNPICKGCLSCSKDNGCSRCQQKLFFFLRREGMRQYGECLHSCPSGYYGHRAPDMNRCARCRIENCDSCFSKDFCTKCKVGFYLHRGRCFDECPDGFAPLEETMECVEGCEVGHWSEWGTCSRNNRTCGFKWGLETRTRQIVKKPVKDTILCPTIAESRRCKMTMRHCPGGKRTPKAKEKRNKKKKRKLIERAQEQHSVFLATDRANQ", "values": [{"measurement": "TCF-luciferase activity in the presence of both Wnt3a and R-spondin2", "setting": "[4]; 18 h, combined with Wnt3a", "value": "synergistic increases"}, {"measurement": "TCF-luciferase activity", "setting": "[4]; 18 h", "value": "minimal stimulation"}, {"measurement": "MTS activity (viable cell number)", "setting": "[5]", "value": "stimulated MTS activity in a dose-dependent manner"}, {"measurement": "MTS activity with both Wnt3a and R-Spondin2", "setting": "[5]; combined with Wnt3a", "value": "further increases in MTS activity"}, {"measurement": "Ovarian follicle development (morphological analyses)", "setting": "[6]; 4 days culture", "value": "promotion of ovarian follicle development"}, {"measurement": "Ovarian weight of explants, R-spondin2 and FSH added together", "setting": "[6]; 4 days culture, combined with FSH", "value": "further increases"}, {"measurement": "Ovarian weight of explants", "setting": "[6]; day 10 ovaries, 4 days culture", "value": "increased ovarian weight in a dose-dependent manner"}, {"measurement": "Percentage of primordial and degenerated follicles", "setting": "[6]; [7]", "value": "negligible changes"}, {"measurement": "Ratio of primary and percentage of secondary follicles", "setting": "[6]; [7]", "value": "decreased the ratio of primary follicles accompanied by increases in the percentage of secondary follicles"}]}, {"molecule": "DKK1: Dickkopf1, a Wnt signaling antagonist (protein, UniProt O94907 32-266, looked up) Dickkopf-related protein 1: TLNSVLNSNAIKNLPPPLGGAAGHPGSAVSAAPGILYPGGNKYQTIDNYQPYPCAEDEECGTDEYCASPTRGGDAGVQICLACRKRRKRCMRHAMCCPGNYCKNGICVSSDQNHFRGEIEETITESFGNDHSTLDGYSRRTTLSSKMYHTKGQEGSVCLRSSDCASGLCCARHFWSKICKPVLKEGQVCTKHRRKGSHGLEIFQRCYCGEGLSCRIQKDHHQASNSSRLHTCQRH", "values": [{"measurement": "Effect on R-spondin2- and Wnt3a-stimulated TCF-luciferase activity", "setting": "[4]", "value": "blocked the stimulatory effects"}, {"measurement": "Effect on stimulatory effects of FSH on ovarian growth", "setting": "[6]; explant cultures", "value": "not blocked"}]}, {"molecule": "Wnt3a: Wnt ligand (protein, UniProt P56704 19-352, looked up) Protein Wnt-3a: SYPIWWSLAVGPQYSSLGSQPILCASIPGLVPKQLRFCRNYVEIMPSVAEGIKIGIQECQHQFRGRRWNCTTVHDSLAIFGPVLDKATRESAFVHAIASAGVAFAVTRSCAEGTAAICGCSSRHQGSPGKGWKWGGCSEDIEFGGMVSREFADARENRPDARSAMNRHNNEAGRQAIASHMHLKCKCHGLSGSCEVKTCWWSQPDFRAIGDFLKDKYDSASEMVVEKHRESRGWVETLRPRYTYFKVPTERDLVYYEASPNFCEPNPETGSFGTRDRTCNVSSHGIDGCDLLCCGRGHNARAERRREKCRCVFHWCCYVSCQECTRVYDVHTCK", "values": [{"measurement": "TCF-luciferase activity", "setting": "[4]; 18 h", "value": "minimal stimulation"}, {"measurement": "MTS activity (viable cell number)", "setting": "[5]", "value": "stimulated MTS activity in a dose-dependent manner"}]}]}
